Measured values taken from publication PMC12046042 (2025).

Tests used:
Assay in all cases: SPR
FcγRIIa-131R = target: FcγRIIa-131R
FcγRIIIa-158V = target: FcγRIIIa-158V
FcγRIIa-131H = target: FcγRIIa-131H
FcγRIIIa-158F = target: FcγRIIIa-158F
FcγRIIb = target: FcγRIIb
[1] = target: T1, FcγRI (CD64) extracellular domain (UniProt P12314 16-292)
T1 chain: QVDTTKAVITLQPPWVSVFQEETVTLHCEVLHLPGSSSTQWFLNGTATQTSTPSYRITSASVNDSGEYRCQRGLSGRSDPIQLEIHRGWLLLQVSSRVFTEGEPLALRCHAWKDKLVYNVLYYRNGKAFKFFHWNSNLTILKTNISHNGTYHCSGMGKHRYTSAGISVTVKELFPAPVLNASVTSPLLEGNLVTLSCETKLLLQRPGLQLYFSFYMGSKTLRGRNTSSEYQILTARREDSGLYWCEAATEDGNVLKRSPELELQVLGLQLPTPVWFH

B1: LY3454738 IgG4 S228P (ucenprubart) (antibody)
chain 1: QVQLVQSGAEVKKPGASVKVSCKASGFSFSSGYYMAWVRQAPGQGLEWMGLIGVGSGSLWYAQKFQGRVTMTRDTSTSTVYMELSSLRSEDTAVYYCARHFALSDPFNLWGQGTLVTVSS
chain 2: EIVLTQSPDFQSVTPKEKVTITCQASESIDSYLLWYQQKPDQSPKLLIKQASTLASGVPSRFSGSGSGTDFTLTINSLEAEDAATYYCQNYYDISSNDFGGGTKVEIK
For B1, the Kd (FcγRIIa-131R) was 1.8 µM, the Kd (FcγRIIIa-158V) was 5 µM and the Kd (FcγRIIa-131H) was 4.4 µM. The Kd (FcγRIIIa-158F) was over 10 µM, the Kd (FcγRIIb) was 1.9 µM and the Kd [1] was 0.000474 µM.
